Measurements published in patent publication US20240261333A1, “NOVEL TARGETS FOR ENHANCING ANTI-TUMOR IMMUNITY” (THE BROAD INSTITUTE, INC., priority 2021, published 2024).

What was measured:
ATP1A1 (human) = ATP1A1 (human) (UniProt P05023); experiment: co-IP/MS, IgG control IP of N-FLAG B3GNT2 cell lysate
CALU (human) = CALU (human) (UniProt O43852); experiment: as above
CANX (human) = CANX (human) (UniProt P27824); experiment: as above
CAPZA1 (human) = CAPZA1 (human) (UniProt P52907); experiment: as above
CAPZB (human) = CAPZB (human) (UniProt P47756); experiment: as above
CKAP4 (human) = CKAP4 (human) (UniProt Q07065); experiment: as above
Chain of CKAP4 (human) (Q07065 whole entry): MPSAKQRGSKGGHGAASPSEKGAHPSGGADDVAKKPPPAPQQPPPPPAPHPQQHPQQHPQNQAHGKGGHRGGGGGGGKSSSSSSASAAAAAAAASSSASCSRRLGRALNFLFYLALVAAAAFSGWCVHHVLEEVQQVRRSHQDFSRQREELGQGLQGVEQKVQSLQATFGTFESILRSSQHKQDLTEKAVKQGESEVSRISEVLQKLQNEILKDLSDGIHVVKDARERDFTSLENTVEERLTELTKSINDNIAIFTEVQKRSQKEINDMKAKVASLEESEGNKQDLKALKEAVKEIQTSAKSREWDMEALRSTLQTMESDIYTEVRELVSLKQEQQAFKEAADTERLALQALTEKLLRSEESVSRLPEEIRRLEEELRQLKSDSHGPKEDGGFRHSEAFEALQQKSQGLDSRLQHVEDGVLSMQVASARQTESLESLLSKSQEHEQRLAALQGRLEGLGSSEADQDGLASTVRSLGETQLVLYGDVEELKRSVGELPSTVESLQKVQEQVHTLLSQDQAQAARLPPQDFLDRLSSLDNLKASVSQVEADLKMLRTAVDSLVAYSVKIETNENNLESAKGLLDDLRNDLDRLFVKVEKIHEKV

DNAJA1 (human) = DNAJA1 (human) (UniProt P31689); experiment: as above
FKBP10 (human) = FKBP10 (human) (UniProt Q96AY3); experiment: as above
Chain of FKBP10 (human) (Q96AY3 27-582 limits assumed): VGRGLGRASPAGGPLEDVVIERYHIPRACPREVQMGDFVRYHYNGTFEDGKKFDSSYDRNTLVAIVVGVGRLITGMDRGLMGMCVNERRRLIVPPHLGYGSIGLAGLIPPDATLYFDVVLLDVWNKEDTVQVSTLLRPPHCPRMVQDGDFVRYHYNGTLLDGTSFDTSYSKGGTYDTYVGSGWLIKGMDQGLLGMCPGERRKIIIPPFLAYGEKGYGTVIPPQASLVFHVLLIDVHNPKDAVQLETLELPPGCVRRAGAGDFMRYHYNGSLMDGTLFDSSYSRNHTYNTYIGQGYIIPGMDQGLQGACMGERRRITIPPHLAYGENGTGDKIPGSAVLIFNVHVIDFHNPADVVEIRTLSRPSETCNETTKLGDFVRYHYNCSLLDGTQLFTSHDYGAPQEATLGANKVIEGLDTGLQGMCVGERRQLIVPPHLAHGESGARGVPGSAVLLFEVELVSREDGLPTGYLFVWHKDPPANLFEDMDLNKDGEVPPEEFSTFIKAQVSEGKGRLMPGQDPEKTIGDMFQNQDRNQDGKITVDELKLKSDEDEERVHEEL

GCN1 (human) = GCN1 (human) (UniProt Q92616); experiment: as above
Chain of GCN1 (human) (Q92616 2-2671 limits assumed): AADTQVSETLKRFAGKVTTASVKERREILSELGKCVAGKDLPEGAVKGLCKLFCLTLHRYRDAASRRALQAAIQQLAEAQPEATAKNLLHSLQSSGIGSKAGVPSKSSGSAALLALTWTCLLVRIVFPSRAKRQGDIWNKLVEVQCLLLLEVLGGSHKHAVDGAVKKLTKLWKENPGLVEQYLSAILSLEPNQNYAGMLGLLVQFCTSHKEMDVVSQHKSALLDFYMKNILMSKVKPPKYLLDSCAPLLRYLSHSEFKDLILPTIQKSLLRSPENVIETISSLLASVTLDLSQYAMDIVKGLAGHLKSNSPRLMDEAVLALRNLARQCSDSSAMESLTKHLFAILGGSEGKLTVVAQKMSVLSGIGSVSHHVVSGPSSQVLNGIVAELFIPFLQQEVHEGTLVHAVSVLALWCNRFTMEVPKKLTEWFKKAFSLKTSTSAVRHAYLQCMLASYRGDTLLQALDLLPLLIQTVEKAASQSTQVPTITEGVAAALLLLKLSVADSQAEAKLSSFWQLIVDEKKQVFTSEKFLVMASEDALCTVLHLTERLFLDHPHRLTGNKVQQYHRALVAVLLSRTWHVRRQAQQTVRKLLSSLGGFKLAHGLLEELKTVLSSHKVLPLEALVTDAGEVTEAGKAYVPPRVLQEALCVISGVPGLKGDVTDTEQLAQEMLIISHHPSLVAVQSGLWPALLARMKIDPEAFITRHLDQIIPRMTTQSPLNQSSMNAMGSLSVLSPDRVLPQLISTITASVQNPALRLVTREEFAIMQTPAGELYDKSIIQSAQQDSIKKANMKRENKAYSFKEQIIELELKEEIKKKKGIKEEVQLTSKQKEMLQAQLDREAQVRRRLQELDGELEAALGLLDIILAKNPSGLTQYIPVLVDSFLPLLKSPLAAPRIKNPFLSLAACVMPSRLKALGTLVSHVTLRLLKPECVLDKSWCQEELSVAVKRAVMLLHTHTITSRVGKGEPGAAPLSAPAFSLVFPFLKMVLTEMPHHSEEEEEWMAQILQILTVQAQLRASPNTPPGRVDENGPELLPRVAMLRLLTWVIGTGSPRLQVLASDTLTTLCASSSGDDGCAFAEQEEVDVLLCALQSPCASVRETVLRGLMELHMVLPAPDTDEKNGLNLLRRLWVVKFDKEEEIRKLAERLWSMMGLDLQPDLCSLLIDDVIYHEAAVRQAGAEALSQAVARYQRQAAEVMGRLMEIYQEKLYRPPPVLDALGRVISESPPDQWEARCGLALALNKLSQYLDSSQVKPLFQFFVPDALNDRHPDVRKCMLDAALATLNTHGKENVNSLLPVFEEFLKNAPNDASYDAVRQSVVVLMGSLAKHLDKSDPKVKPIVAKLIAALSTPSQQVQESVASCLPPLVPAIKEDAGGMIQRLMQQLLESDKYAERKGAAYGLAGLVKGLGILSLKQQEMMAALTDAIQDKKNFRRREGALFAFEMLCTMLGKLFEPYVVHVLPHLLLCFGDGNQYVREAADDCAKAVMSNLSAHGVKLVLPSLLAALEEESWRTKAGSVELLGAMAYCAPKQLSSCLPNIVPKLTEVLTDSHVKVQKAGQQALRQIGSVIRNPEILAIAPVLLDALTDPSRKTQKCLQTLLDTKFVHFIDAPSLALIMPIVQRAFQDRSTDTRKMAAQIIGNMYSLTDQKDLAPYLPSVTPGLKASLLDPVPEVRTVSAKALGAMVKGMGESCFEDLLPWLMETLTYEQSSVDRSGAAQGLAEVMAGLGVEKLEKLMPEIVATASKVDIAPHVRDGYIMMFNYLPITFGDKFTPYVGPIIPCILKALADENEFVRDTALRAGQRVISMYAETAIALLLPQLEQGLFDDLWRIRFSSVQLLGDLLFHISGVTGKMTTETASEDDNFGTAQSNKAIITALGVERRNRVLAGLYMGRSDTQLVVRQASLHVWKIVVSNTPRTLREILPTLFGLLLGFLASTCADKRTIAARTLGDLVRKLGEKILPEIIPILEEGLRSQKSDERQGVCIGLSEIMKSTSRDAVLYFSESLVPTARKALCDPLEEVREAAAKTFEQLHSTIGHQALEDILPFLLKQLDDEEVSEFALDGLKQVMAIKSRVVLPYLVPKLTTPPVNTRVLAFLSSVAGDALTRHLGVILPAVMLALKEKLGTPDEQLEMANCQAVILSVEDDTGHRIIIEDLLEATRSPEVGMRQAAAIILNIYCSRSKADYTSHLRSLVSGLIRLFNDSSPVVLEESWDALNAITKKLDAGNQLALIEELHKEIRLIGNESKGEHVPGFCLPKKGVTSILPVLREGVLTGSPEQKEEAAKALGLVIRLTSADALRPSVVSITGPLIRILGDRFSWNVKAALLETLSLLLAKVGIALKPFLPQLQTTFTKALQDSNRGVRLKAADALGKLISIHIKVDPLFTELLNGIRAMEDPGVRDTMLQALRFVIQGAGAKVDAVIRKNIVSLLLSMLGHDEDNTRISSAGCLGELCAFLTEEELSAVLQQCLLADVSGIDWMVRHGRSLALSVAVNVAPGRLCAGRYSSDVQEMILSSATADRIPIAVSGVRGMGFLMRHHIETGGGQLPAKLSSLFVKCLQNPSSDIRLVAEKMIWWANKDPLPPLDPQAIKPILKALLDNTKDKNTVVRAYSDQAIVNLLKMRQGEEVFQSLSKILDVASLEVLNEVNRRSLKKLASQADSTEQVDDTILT

HSD17B12 (human) = HSD17B12 (human) (UniProt Q53GQ0); experiment: as above
Chain of HSD17B12 (human) (Q53GQ0 whole entry): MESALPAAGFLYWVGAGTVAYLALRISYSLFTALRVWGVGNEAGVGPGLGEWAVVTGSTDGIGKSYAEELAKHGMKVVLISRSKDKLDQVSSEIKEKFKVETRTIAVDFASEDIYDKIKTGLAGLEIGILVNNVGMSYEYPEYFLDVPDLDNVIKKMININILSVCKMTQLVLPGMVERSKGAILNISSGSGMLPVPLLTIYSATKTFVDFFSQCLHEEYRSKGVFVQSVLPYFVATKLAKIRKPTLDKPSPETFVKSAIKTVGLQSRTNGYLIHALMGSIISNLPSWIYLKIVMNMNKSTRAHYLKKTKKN

IPO4 (human) = IPO4 (human) (UniProt Q8TEX9); experiment: as above
PCBP1 (human) = PCBP1 (human) (UniProt Q15365); experiment: as above
PDIA6 (human) = PDIA6 (human) (UniProt Q15084); experiment: as above
PIP (human) = PIP (human) (UniProt P12273); experiment: as above
Chain of PIP (human) (P12273 29-146 limits assumed): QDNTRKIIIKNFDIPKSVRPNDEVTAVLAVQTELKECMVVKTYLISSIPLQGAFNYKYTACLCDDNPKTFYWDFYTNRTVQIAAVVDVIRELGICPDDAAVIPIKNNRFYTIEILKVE

PRDX1 (human) = PRDX1 (human) (UniProt Q06830); experiment: as above
RPL12 (human) = RPL12 (human) (UniProt P30050); experiment: as above
RPL13A (human) = RPL13A (human) (UniProt P40429); experiment: as above
RPL23A (human) = RPL23A (human) (UniProt P62750); experiment: as above
RPL30 (human) = RPL30 (human) (UniProt P62888); experiment: as above
RPLPO (human) = RPLPO (human) (UniProt P05388); experiment: as above
RPS15 (human) = RPS15 (human) (UniProt P62841); experiment: as above
RPS3A (human) = RPS3A (human) (UniProt P61247); experiment: as above
RPS5 (human) = RPS5 (human) (UniProt P46782); experiment: as above
RPS7 (human) = RPS7 (human) (UniProt P62081); experiment: as above
RPS9 (human) = RPS9 (human) (UniProt P46781); experiment: as above
SLC25A4 (human) = SLC25A4 (human) (UniProt P12235); experiment: as above
SQSTM1 (human) = SQSTM1 (human) (UniProt Q13501); experiment: as above
TGM3 (human) = TGM3 (human) (UniProt Q08188); experiment: as above
UQCRC2 (human) = UQCRC2 (human) (UniProt P22695); experiment: as above
CPT1A (human) = CPT1A (human) (UniProt P50416); experiment: co-IP with anti-FLAG, N-FLAG B3GNT2, mass spectrometry
HBB (human) = HBB (human) (UniProt P68871); experiment: as above
IL13RA2 (human) = IL13RA2 (human) (UniProt Q14627); experiment: as above
Chain of IL13RA2 (human) (Q14627 27-380 limits assumed): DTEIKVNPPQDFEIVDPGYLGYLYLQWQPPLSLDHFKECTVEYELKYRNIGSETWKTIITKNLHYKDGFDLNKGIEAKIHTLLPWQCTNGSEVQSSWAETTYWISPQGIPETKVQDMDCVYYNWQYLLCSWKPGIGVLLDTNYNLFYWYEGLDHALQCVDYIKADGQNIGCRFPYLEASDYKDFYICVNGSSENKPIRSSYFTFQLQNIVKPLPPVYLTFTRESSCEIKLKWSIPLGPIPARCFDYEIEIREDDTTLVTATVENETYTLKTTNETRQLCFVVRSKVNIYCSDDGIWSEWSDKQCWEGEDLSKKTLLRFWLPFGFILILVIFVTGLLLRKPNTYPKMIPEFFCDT

KCTD5 (human) = KCTD5 (human) (UniProt Q9NXV2); experiment: as above
Chain of KCTD5 (human) (Q9NXV2 2-234 limits assumed): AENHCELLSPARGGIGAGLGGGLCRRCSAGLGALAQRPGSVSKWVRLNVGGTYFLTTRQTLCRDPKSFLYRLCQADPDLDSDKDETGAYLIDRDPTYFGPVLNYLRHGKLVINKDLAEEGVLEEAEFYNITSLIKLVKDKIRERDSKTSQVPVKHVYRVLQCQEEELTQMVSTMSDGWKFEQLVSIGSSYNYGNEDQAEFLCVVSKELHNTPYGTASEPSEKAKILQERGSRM

LCN1 (human) = LCN1 (human) (UniProt P31025); experiment: as above
MMP14 (human) = MMP14 (human) (UniProt P50281); experiment: as above
[1] = biological target: P0AA25.2 [thioredoxin: P0AA25]; experiment: as above
Chain of P0AA25.2 [thioredoxin: P0AA25] (P0AA25 2-109): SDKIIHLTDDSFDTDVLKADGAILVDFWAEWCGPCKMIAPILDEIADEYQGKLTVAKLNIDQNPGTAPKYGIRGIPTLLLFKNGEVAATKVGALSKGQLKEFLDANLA

SYNPO (human) = SYNPO (human) (UniProt Q8N3V7); experiment: as above
TELO2 (human) = TELO2 (human) (UniProt Q9Y4R8); experiment: as above
XPO1 (human) = XPO1 (human) (UniProt O14980); experiment: as above

Substance: IgG control (Millipore Sigma 12-371) (antibody)
- co-IP mass spectrometry count (ATP1A1 (human)): 0
- co-IP mass spectrometry count (CALU (human)): 0
- co-IP mass spectrometry count (CANX (human)): 0
- co-IP mass spectrometry count (CAPZA1 (human)): 0
- co-IP mass spectrometry count (CAPZB (human)): 2
- co-IP mass spectrometry count (CKAP4 (human)): 0
- co-IP mass spectrometry count (DNAJA1 (human)): 0
- co-IP mass spectrometry count (FKBP10 (human)): 0
- co-IP mass spectrometry count (GCN1 (human)): 0
- co-IP mass spectrometry count (HSD17B12 (human)): 0
- co-IP mass spectrometry count (IPO4 (human)): 0
- co-IP mass spectrometry count (PCBP1 (human)): 0
- co-IP mass spectrometry count (PDIA6 (human)): 0
- co-IP mass spectrometry count (PIP (human)): 0
- co-IP mass spectrometry count (PRDX1 (human)): 5
- co-IP mass spectrometry count (RPL12 (human)): 4
- co-IP mass spectrometry count (RPL13A (human)): 0
- co-IP mass spectrometry count (RPL23A (human)): 3
- co-IP mass spectrometry count (RPL30 (human)): 6
- co-IP mass spectrometry count (RPLPO (human)): 0
- co-IP mass spectrometry count (RPS15 (human)): 5
- co-IP mass spectrometry count (RPS3A (human)): 9
- co-IP mass spectrometry count (RPS5 (human)): 3
- co-IP mass spectrometry count (RPS7 (human)): 2
- co-IP mass spectrometry count (RPS9 (human)): 3
- co-IP mass spectrometry count (SLC25A4 (human)): 0
- co-IP mass spectrometry count (SQSTM1 (human)): 0
- co-IP mass spectrometry count (TGM3 (human)): 2
- co-IP mass spectrometry count (UQCRC2 (human)): 0

Substance: N-terminal FLAG tagged B3GNT2 (from UniProt Q9NY97 1-397) (enzyme)
- co-IP/MS count, N-term FLAG (CPT1A (human)): 2
- co-IP/MS count, N-term FLAG (HBB (human)): 4
- co-IP mass spectrometry count (IL13RA2 (human)): 3
- co-IP mass spectrometry count (KCTD5 (human)): 2
- co-IP mass spectrometry count (LCN1 (human)): 11
- co-IP/MS count, N-term FLAG (MMP14 (human)): 2
- co-IP/MS count, N-term FLAG [1]: 7
- co-IP mass spectrometry count (SYNPO (human)): 4
- co-IP mass spectrometry count (TELO2 (human)): 2
- co-IP/MS count, N-term FLAG (XPO1 (human)): 2
